Read-outs that look alike come from different tables or passages of the source.
Columns and labels:
[1] = system: DNA of G4 (GGGT)4; assay: Non-denaturing polyacrylamide gel electrophoresis of G4 DNA binding to proteins; details: for binding to G4 DNAs (new slower band): protein:DNA 2:1 and 6:1, 100 nM G4 DNA, gel with 75 mM KCl
Protocol: After the culture was incubated until OD reach 0.5, the culture was induced with 0.8 mM IPTG and kept for 4 h at 37° C., followed by protein extraction and purification to obtain the proteins monomer, G4P, triplex, and tetrad. The protein extraction was performed by using Capturem™ His-Tagged Purification Miniprep Kit (TAKARA).
The obtained proteins were mixed with the DNA of G4 at a molar concentration ratio of 2:1 and 6:1, respectively, where the DNA of G4 comprises a sequence of (GGGT)4 (SEQ ID NO: 74), with a concentration of 100 nM. The G4 DNAs binding to the proteins were electrophoresed in a non-denaturing polyacrylamide gel containing 75 mM KCl. […] The G4 DNAs moved slower after binding to the proteins, thereby yielding a new band.

[2] = target: T2B-1; assay: ELISA binding of G4P to immobilized biotinylated oligonucleotide; details: G4, Bulge, Parallel, read-out: Kd (nM) ± SD
Protocol: (§1) The annealed oligonucleotides were immobilized on a streptavidin-coated plate (Sigma-Aldrich), followed by incubating with G4P or RHAU23 at the indicated concentrations. Detection of bound proteins used an anti-FLAG Mouse Monoclonal Antibody (Transgen Biotech, China), an HRP Conjugated Goat Anti-Mouse IgG (H+L) secondary antibody (Transgen Biotech, China), and a TMB ELISA Substrate (Transgen Biotech, China) according to the manufacturer's instructions. Absorbance was measured at 450 nm on a Multi-Plate Reader (Biotek, USA). Dissociation constants (Kd) were obtained from the binding curves. The standard error of mean values was calculated from three replicates.

[3] = target: SPB1; assay: as above; details: G4, Antiparallel, read-out: Kd (nM) ± SD
Protocol: as §1

[4] = target: 2G DNA + 2G RNA; assay: as above; details: 2/2 DNA/RNA Hybrid G4, Parallel, read-out: Kd (nM) ± SD
Protocol: as §1

[5] = target: TERRA3G; assay: as above; details: intermolecular G4, Parallel, read-out: Kd (nM) ± SD
Protocol: as §1

[6] = target: MYOG; assay: as above; details: G4, GVBQ, read-out: Kd (nM) ± SD
Protocol: as §1

[7] = target: hTel; assay: as above; details: G4, Mixed parallel and antiparallel, read-out: Kd (nM) ± SD
Protocol: as §1

[8] = target: TBA; assay: as above; details: G4, Antiparallel, read-out: Kd (nM) ± SD
Protocol: as §1

[9] = target: NRAS RNA; assay: as above; details: G4, read-out: Kd (nM) ± SD
Protocol: as §1

[10] = target: DRD3; assay: as above; details: G4, Antiparallel, read-out: Kd (nM) ± SD
Protocol: as §1

[11] = target: C20orf24; assay: as above; details: G4, Mixed parallel and antiparallel, read-out: Kd (nM) ± SD
Protocol: as §1

[12] = target: Bcl2; assay: as above; details: G4, Mixed parallel and antiparallel, read-out: Kd (nM) ± SD
Protocol: as §1

[13] = target: TERRA; assay: as above; details: G4, Parallel, read-out: Kd (nM) ± SD
Protocol: as §1

[14] = target: hTel-3G; assay: as above; details: intermolecular G4, Mixed parallel and antiparallel, read-out: Kd (nM) ± SD
Protocol: as §1

[15] = target: 3G DNA + 1G RNA; assay: as above; details: 3/1 DNA/RNA Hybrid G4, Parallel, read-out: Kd (nM) ± SD
Protocol: as §1

[16] = target: CSTB; assay: as above; details: G4, Parallel, read-out: Kd (nM) ± SD
Protocol: as §1

[17] = target: HRAS1; assay: as above; details: G4, Antiparallel, read-out: Kd (nM) ± SD
Protocol: as §1

[18] = target: c-MYC; assay: as above; details: G4, Parallel, read-out: Kd (nM) ± SD
Protocol: as §1

[19] = target: C9orf72; assay: as above; details: G4, Antiparallel, read-out: Kd (nM) ± SD
Protocol: as §1

[20] = target: ABTB2; assay: as above; details: G4, GVBQ, read-out: Kd (nM) ± SD
Protocol: as §1

[21] = target: HT; assay: as above; details: G4, Mixed parallel and antiparallel, read-out: Kd (nM) ± SD
Protocol: as §1

[22] = system: parallel and nonparallel G4s; assay: ELISA comparison of G4 binding affinity between G4P and monomeric RHAU23; details: FIG. 3
Protocol: as §1
A comparison of G4 binding affinity between G4P and a monomeric RHAU23 was further performed. A G4P comprising only one G4-binding domain was termed monomeric RHAU23.

[23] = target: G4s; assay: ELISA binding, summary over the 21 G4s
Protocol: as §1
(§2) Therefore, the following were searched for PQSs of the three well-characterized non-canonical G4s, i.e. G4s with one loop of 8-15 nucleotides (4GL15), G-vacancy-bearing G4s (GVBQ), G4 with a bulge (Bulge), respectively. The G4P had no binding to the non-G4 DNAs or RNAs, including single-stranded DNA (ssDNA), RNA hairpin, DNA: RNA heteroduplex, and i-motif.

[24] = system: non-G4 DNAs or RNAs; assay: ELISA binding, summary over non-G4 controls; details: ssDNA, RNA hairpin, DNA: RNA heteroduplex, i-motif
Protocol: as §1, §2

B1: G4P: Polypeptide probe: two RHAU23 G4-binding domains, linker of three GTGSGA hexapeptides, C-terminal 3xFLAG tag, N-terminal HIS tag; SEQ ID NO: 4 (protein)
chain: MGSSHHHHHHSSGLVPRGSHMHPGHLKGREIGMWYAKKQGQKNKGTGSGAGTGSGAGTGSGAHPGHLKGREIGMWYAKKQGQKNKGTGSGADYKDHDGDYKDHDIDYKDDDDK
modifications: Fully synthetic
Q: For B1, which “relative affinity with G4s among the proteins” value ([1]; compared among monomer, G4P, triplex, tetrad) is on record?
A: highest affinity

Q: And the “binding to G4 DNAs (new slower band)” value [1]?
A: binding ability

Q: What about the Kd [2] of the same molecule?
A: 0.34 ± 0.02 nM

Q: What about the Kd [3] of the same molecule?
A: 2.83 ± 0.15 nM

Q: What about the Kd [4] of the same molecule?
A: 0.42 ± 0.06 nM

Q: And the Kd [5]?
A: 0.83 ± 0.05 nM

Q: What about the Kd [6] of the same molecule?
A: 0.82 ± 0.05 nM

Q: What about the Kd [7] of the same molecule?
A: 0.37 ± 0.03 nM

Q: What about the Kd [8] of the same molecule?
A: 1.71 ± 0.1 nM

Q: What about the Kd [9] of the same molecule?
A: 0.48 ± 0.03 nM

Q: What about the Kd [10] of the same molecule?
A: 0.31 ± 0.03 nM

Q: What about the Kd [11] of the same molecule?
A: 0.35 ± 0.03 nM

Q: What about the Kd [12] of the same molecule?
A: 0.9 ± 0.08 nM

Q: And the Kd [13]?
A: 1.44 ± 0.11 nM

Q: And the Kd [14]?
A: 0.71 ± 0.05 nM

Q: What about the Kd [15] of the same molecule?
A: 0.59 ± 0.1 nM

Q: What about the Kd [16] of the same molecule?
A: 0.37 ± 0.03 nM

Q: What about the Kd [17] of the same molecule?
A: 3.11 ± 0.25 nM

Q: And the Kd [18]?
A: 0.99 ± 0.1 nM

Q: What about the Kd [19] of the same molecule?
A: 1.89 ± 0.21 nM

Q: And the Kd [20]?
A: 0.59 ± 0.04 nM

Q: What about the Kd [21] of the same molecule?
A: 0.79 ± 0.05 nM

Q: What about the “discrimination between parallel and nonparallel G4s in binding” value [22] of the same molecule?
A: almost no discrimination between the parallel and nonparallel G4

Q: What about the Kd ([23]; 5 of the 21 G4s, read-out: Kd to 5 G4s) of the same molecule?
A: 1 to 3 nM

Q: And the “Kd to 16 G4s” value ([23]; 16 of the 21 G4s)?
A: sub-nM

Q: What about the Kd ([23]; range over the 21 G4s, read-out: Kd values for these G4s) of the same molecule?
A: 0.31 to 3.11 nM

Q: And the “binding to the non-G4 DNAs or RNAs” value [24]?
A: no binding

B2: RHAU23: G4P comprising only one G4-binding domain RHAU23; amino acid sequence SEQ ID NO: 5 (protein)
chain: MGSSHHHHHHSSGLVPRGSHMHPGHLKGREIGMWYAKKQGQKNKGTGSGADYKDHDGDYKDHDIDYKDDDDK
modifications: Fully synthetic
Q: With B2 as the molecule, how does the “discrimination between parallel and nonparallel G4s in binding” value [22] read?
A: only binds parallel, but not nonparallel G4s

B3: triplex: Protein comprising three binding domains RHAU23; amino acid sequence SEQ ID NO: 6 (protein)
chain: MGSSHHHHHHSSGLVPRGSHMHPGHLKGREIGMWYAKKQGQKNKGTGSGAGTGSGAGTGSGAHPGHLKGREIGMWYAKKQGQKNKGTGSGAGTGSGAGTGSGAHPGHLKGREIGMWYAKKQGQKNKGTGSGADYKDHDGDYKDHDIDYKDDDDK
modifications: Fully synthetic
Q: Which “binding to G4 DNAs (new slower band)” value [1] does the source give for B3 here?
A: binding ability

B4: tetrad: Protein comprising four binding domains RHAU23; amino acid sequence SEQ ID NO: 7 (protein)
chain: MGSSHHHHHHSSGLVPRGSHMHPGHLKGREIGMWYAKKQGQKNKGTGSGAGTGSGAGTGSGAHPGHLKGREIGMWYAKKQGQKNKGTGSGAGTGSGAGTGSGAHPGHLKGREIGMWYAKKQGQKNKGTGSGAGTGSGAGTGSGAHPGHLKGREIGMWYAKKQGQKNKGTGSGADYKDHDGDYKDHDIDYKDDDDK
modifications: Fully synthetic
Q: B4 was tested. Which “binding to G4 DNAs (new slower band)” value [1] did it give?
A: binding ability

Source: patent publication US11767343B2, “Peptide probe for recognition of G-quadruplex and use thereof in detection of G-quadruplex in cell” (Changzhi Medical College, priority 2020, dated 2023)
